Sequences and labels used below:
B1: myc-HTR6 [mouse] / EGFP-RABL2B [human] (parent complex)
chain 1: MVPEPGPVNSSTPAWGPGPPPAPGGSGWVAAALCVVIVLTAAANSLLIALICTQPALRNTSNFFLVSLFTSDLMVGLVVMPPAMLNALYGRWVLARGLCLLWTAFDVMCCSASILNLCLISLDRYLLILSPLRYKLRMTAPRALALILGAWSLAALASFLPLLLGWHELGKARTSAPGQCRLLASLPYVLVASGVTFFLPSGAICFTYCRILLAARKQAVQVASLTTGTATAGQALETLQVPRTPRPGMESADSRRLTTKHSRKALKASLTLGILLSMFFVTWLPFFVASIAQAVCDCISPGLFDVLTWLGYCNSTMNPIIYPLFMRDFKRALGRFVPCVHCPPEHRASPASPSMWTSHSGARPGLSLQQVLPLPLPPNSDSDSASGGTSGLQLTAQLLLPGEATRDPPPPTRAPTVVNFFVTDSVEPEIRQHPLGSPMN
chain 2: MAEDKTKPSELDQGKYDADDNVKIICLGDSAVGKSKLMERFLMDGFQPQQLSTYALTLYKHTATVDGRTILVDFWDTAGQERFQSMHASYYHKAHACIMVFDVQRKVTYRNLSTWYTELREFRPEIPCIVVANKIDDINVTQKSFNFAKKFSLPLYFVSAADGTNVVKLFNDAIRLAVSYKQNSQDFMDEIFQELENFSLEQEEEDVPDQEQSSSIETPSEEAASPHS

This is an account of results in publication PMC7772773 (2020).

The first test covers variants of B1. Nature of the test: co-immunoprecipitation (IP anti-EGFP, Western blot anti-Myc), IP/input band quantitation; lysates from HEK293T cells; Input is 2.5% of lysate used for IP; parent: 100. In general terms: Immunoblotting shows a protein as a band on a membrane.
In the case of chain 1 L398A, chain 1 L399A, chain 1 L400A, the percent of parent was 103%.

The next test covers variants of B1. The test is described as above. The source holds these as a separate data set.
In the case of chain 1 L398A, chain 1 L399A, chain 1 L400A, the percent of parent is 121%.

For the variant chain 1 R216A, chain 1 K217A, chain 1 Q218A, chain 1 L398A, chain 1 L399A, chain 1 L400A, the percent of parent was found to be 105%.

Consider chain 1 R216A, chain 1 K217A, chain 1 Q218A, for which the percent of parent was found to be 84%.
